The values that follow are results of earlier work, collected in article PMC5433096.

As usually defined, the Kd is the constant that tells how readily two partners part at equilibrium.

The data set has as its target PhoB (Escherichia coli) (UniProt P0AFJ5).
UniProt P0AFJ5, sequence (P0AFJ5 whole entry): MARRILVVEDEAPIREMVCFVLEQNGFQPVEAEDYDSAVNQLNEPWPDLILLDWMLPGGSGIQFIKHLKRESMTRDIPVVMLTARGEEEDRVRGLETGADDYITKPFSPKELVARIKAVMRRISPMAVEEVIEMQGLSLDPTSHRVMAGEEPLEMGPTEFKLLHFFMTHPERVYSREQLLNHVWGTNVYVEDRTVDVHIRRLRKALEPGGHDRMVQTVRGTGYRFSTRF

In the case of PhoR (from UniProt P08400), the Kd was 3000 nM.
